Reference: patent US7276363B2, “Nucleic acid molecules encoding red and green emitting luciferases” (Toyo Boseki Kabushiki Kaisha, priority 1998, dated 2007)

Key:
[1] = substrate: O=C(O)[C@H]1CSC(c2nc3ccc(O)cc3s2)=N1; experiment: purified protein, by the assay type; details: other: ammonium sulfate fractionated extract, luciferin 0.03-2 mM, 4 mM ATP solution, 8 mM MgSO4, 0.1 M Tris-HCl, pH 8.0, 25° C.
[2] = substrate: Nc1ncnc2c1ncn2[C@@H]1O[C@H](COP(=O)(O)OP(=O)(O)OP(=O)(O)O)[C@@H](O)[C@H]1O; experiment: KM determination, PhRE luciferase (light intensity in luminometer, Lineweaver-Burk plots); format: biochemical, Phrixothrix hirtus; details: other: ammonium sulfate fractionated extract, ATP 0.1-4 mM, 0.5 mM luciferin solution, 8 mM MgSO4, 0.1 M Tris-HCl, pH 8.0, 25° C.
Method: (§1) Liquid cultures of SOLR cells carrying luciferase insert containing pBl were grown on LB/amp (50 μg/mL) medium at 37° C. with shaking overnight. The preculture (1/100 vol) was then inoculated in LB/amp (50 μg/mL) in the presence of 1 mM IPTG and incubated at 23° C. during 24 h (OD600=1.8). The cells were harvested by centrifugation at 3000 rpm during 10 min at 4° C., and the pellet was resuspended in cold extraction buffer (0.1 M sodium phosphate buffer, pH 7.5, containing 2 mM EDTA, 1 mM DTT, and 1% Triton X-100). Lysozyme was added to the final concentration of 1 mg/mL and the suspension incubated 15 min at 0° C. and frozen at −80° C. during 15 min. The lysate was centrifuged at 12000 g at 4° C. during 15 min. The supernatant was then fractionated with ammonium sulfate. The fraction precipitated between 55% and 70% saturation was dissolved in cold extraction buffer and stored at −20° C. in the presence of glycerol 15%, to maintain the activity.
(§2) Measurements of light intensities for KM determinations were made using the luminometer described above. […] The assays were carried out at 25° C. Each point of the Michaelis-Menten curve was assayed in quadruplicate. The KM values were estimated by Lineweaver-Burk plots of the reciprocal of light intensities versus […].

[3] = substrate: Nc1ncnc2c1ncn2[C@@H]1O[C@H](COP(=O)(O)OP(=O)(O)OP(=O)(O)O)[C@@H](O)[C@H]1O; experiment: KM determination, PvGR luciferase (light intensity in luminometer, Lineweaver-Burk plots); format: biochemical, Phrixothrix vivianii; details: other: ammonium sulfate fractionated extract, ATP 0.1-4 mM, 0.5 mM luciferin solution, 8 mM MgSO4, 0.1 M Tris-HCl, pH 8.0, 25° C.
Method: as §1, §2

[4] = Luciferase assays: luminometer light output and time course; format: biochemical; details: for total light output: in vivo and in vitro assays of IPTG-induced colonies, corrected for spectral photosensitivity
Method: The activity levels were measured using a Luminescencer AB-2000 luminometer (Atto; Tokyo, Japan) by integration of total light emitted. The assay consisted of the addition of 50 μL of standard solution (2 mM ATP, 0.5 mM D-luciferin, 4 mM MgSO4 in 0.1 M Tris-HCl buffer, pH 8.0) to 10 μL of luciferase-containing extracts at 25° C. In vivo light intensities were measured after adding 50 μL of 0.5 mM D-luciferin in 0.1 M sodium citrate buffer pH 5.0 to 10 μL of bacterial suspension into a microtiter plate.

B1: Phrixothrix hirtus red light-emitting luciferase PhRE, recombinant, wild type, SEQ ID NO: 4 (Phrixothrix hirtus) (protein)
chain: MEEENIVNGDRPRDLVFPGTAGLQLYQSLYKYSYITDGIIDAHTNEVISYAQIFETSCRLAVSLEKYGLDHNNVVAICSENNIHFFGPLIAALYQGIPMATSNDMYTEREMIGHLNISKPCLMFCSKKSLPFILKVQKHLDFLKKVIVIDSMYDINGVECVFSFVSRYTDHAFDPVKFNPKEFDPLERTALIMTSSGTTGLPKGVVISHRSITIRFVHSSDPIYGTRIAPDTSILAIAPFHHAFGLFTALAYFPVGLKIVMVKKFEGEFFLKTIQNYKIASIVVPPPIMVYLAKSPLVDEYNLSSLTEIACGGSPLGRDIADKVAKRLKVHGILQGYGLTETCSALILSPNDRELKKGAIGTPMPYVQVKVIDINTGKALGPREKGEICFKSQMLMKGYHNNPQATRDALDKDGWLHTGDLGYYDEDRFIYVVDRLKELIKYKGYQVAPAELENLLLQHPNISDAGVIGIPDEFAGQLPSACVVLEPGKTMTEKEVQDYIAELVTTTKHLRGGVVFIDSIPKGPTGKLMRNELRAIFAREQAKSKL
With B1 the Km [1] was 20 µM and the Km [2] was 240 µM.

B2: Phrixothrix vivianii green light-emitting luciferase PvGR, recombinant, wild type, SEQ ID NO: 2 (Phrixothrix vivianii) (protein)
chain: MEEENIRHGERPRDIVHPGSAGQQLYQSLYKFASFPEAIIDAHTNEVISYAQIFETSCRLAVSIEQYGLNENNVVGVCSENNINFFNPVLAALYLGIPVATSNDMYTDGELTGHLNISKPTIMFSSKKALPLILRVQQNLSFIKKVVVIDSMYDINGVECVSTFVARYTDHTFDPLSFTPKDFDPLEKIALIMSSSGTTGLPKGVVLSHRSLTIRFVHSRDPIYGTRTVPQTSILSLVPFHHAFGMFTTLSYFVVGLKVVMLKKFEGALFLKTIQNYKIPTIVVAPPVMVFLAKSPLVDQYDLSSLTEVATGGAPLGKDVAEAVAKRLKLPGIIQGYGLTETCCAVMITPHNAVKTGSTGRPLPYIKAKVLDNATGKALGPGERGEICFQSEMIMKGYYNNPEATIDTIDKDGWLHSGDIGYYDEDGNFFIVDRLKELIKYKGYQVAPAELENLLLQHPSIADAGVTGVPDEFGGQLPAACVVLESGKTLTEKEVQDFIAAQVTPTKHLRGGVVFVDSIPKGPTGKLIRKELREIFAQRAPKSKL
For B2, the Km [1] was 150 µM, the Km [3] was 350 µM and the total light output [4] was “nearly the same values”.

B3: PhRE: recombinant red light-emitting luciferase of Phrixothrix hirtus head lanterns, 546 amino acid residues (protein, listed as Phrixothrix hirtus)
chain: MEEENVVNGDRPRDLVFPGTAGLQLYQSLYKYSYITDGIIDAHTNEVISYAQIFETSCRLAVSLEKYGLDHNNVVAICSENNIHFFGPLIAALYQGIPMATSNDMYTEREMIGHLNISKPCLMFCSKKSLPFILKVQKHLDFLKRVIVIDSMYDINGVECVFSFDSRNTDHAFDPVKFNPKEFDPLERTALIMTSSGTTGLPKGVVISHRSITIRFVHSSDPIYGTRIAPDTSILAIAPFHHAFGLFTALAYFPVGLKIVMVKKFEGEFFLKTIQNYKIASIVVPPPIMVYLAKSPLVDEYNCSSLTEIASGGSPLGRDIADKVAKRLKVHGILQGYGLTETCSALILSPNDRELKKGAIGTPMPYVQVKVIDINTGKALGPREKGEICFKSQMLMKGYHNNPQATRDALDKDGWLHTGDLGYYDEDRFIYVVDRLKELIKYKGYQVAPAELENLLLQHPNISDAGVIEFRTNLLVNYLSACVVLEPGKTMTEKEVQDYIAELVTTTKHLRGGVVFIDSIPKGPTGKLMRNELRAIFAREQAKSKL
With B3 the “rise time to the peak of intensity and decay rate of in vitro bioluminescence reaction” value ([4]; compared with PvGR, results not shown) was “faster” and the total light output [4] was “nearly the same values”.
